Key:
[1] = biological target: T1, neddylated CUL1 C-terminal region bound to RBX1 (Homo sapiens, UniProt Q13616;P62877;Q15843, L421E | V451E | V452K | Y455K, NEDD8 linked to a specific site in the WHB subdomain | C-terminus linked to the cullin (isopeptide)); experiment: ELISA; proteins (2 µg/ml) coated on 384-well MaxiSorp plates overnight at 4 °C; Fab titrated (Fig. 1c at 50 nM Fab); detected with anti-M13-HRP (phage) or anti-Kappa-HRP (protein); EC50 by nonlinear regression; the results call the Fabs phage-displayed, the methods give EC50 for purified Fab proteins; conditions: both partners purified
T1 construct: CUL1, human, C-terminal region residues 411-776 with solubilizing substitutions; RBX1, human; NEDD8, human, the conjugated form; also called neddylated CUL1–RBX1; source: neddylated in vitro; not shown: MBP, N-terminal, cleaved; GST, N-terminal, cleaved; copies: + +

[2] = biological target: T2, purified recombinant CUL3 modified by NEDD8 (band on the immunoblot) (Homo sapiens, UniProt Q13618;Q15843, NEDD8 linked to a specific site in the WHB subdomain | C-terminus linked to the cullin (isopeptide)); experiment: far-Western, overlay or dot blot; 200 ng neddylated or unneddylated recombinant CUL1-5 after SDS-PAGE on PVDF; 2 µg/ml biotinylated Fab as primary binder, Streptavidin-HRP; conditions: both partners purified
T2 construct: CUL3, human; NEDD8, human, the conjugated form; Resolved by SDS-PAGE, so RBX1 is not in the band; also called neddylated CUL3–RBX1; source: recombinant, purified, neddylated in vitro; not shown: GST, N-terminal, cleaved

[3] = biological target: T3, neddylated CUL3 (endogenous) (human (endogenous in K562, 293T), UniProt Q13618;Q15843, NEDD8-modified | linked to the cullin); experiment: co-IP; biotinylated Fab on streptavidin magnetic beads, K562 lysates (cells treated with DMSO, MLN4924 or CSN5i-3; N8-block), 45 min at 4 °C, immunoblotting; conditions: one partner purified
T3 construct: CUL3, human; NEDD8, human, the conjugated form; also called NEDD8-linked CUL3; source: endogenous, K562 lysate; endogenous, 293T lysate

[4] = biological target: T4, neddylated CUL2 (endogenous) (human (endogenous in 293T), UniProt Q13617;Q15843, NEDD8-modified | linked to the cullin); experiment: affinity purification with mass spectrometry; IPs with biotinylated N8C_Fab3b on streptavidin beads from lysates of human cells (293T, K562, panel of ten lines), N8-block; cells treated with DMSO, MLN4924, CSN5i-3, Indisulam, MZ1, ferric ammonium citrate or TNF (with MG132 and CB-5083 before stimuli); DIA MS; conditions: one partner purified
T4 construct: CUL2, human; NEDD8, human, the conjugated form; also called NEDD8-linked CUL2; source: endogenous, 293T lysate
T4 sequence (Q13617 whole entry, chain 1 of 2): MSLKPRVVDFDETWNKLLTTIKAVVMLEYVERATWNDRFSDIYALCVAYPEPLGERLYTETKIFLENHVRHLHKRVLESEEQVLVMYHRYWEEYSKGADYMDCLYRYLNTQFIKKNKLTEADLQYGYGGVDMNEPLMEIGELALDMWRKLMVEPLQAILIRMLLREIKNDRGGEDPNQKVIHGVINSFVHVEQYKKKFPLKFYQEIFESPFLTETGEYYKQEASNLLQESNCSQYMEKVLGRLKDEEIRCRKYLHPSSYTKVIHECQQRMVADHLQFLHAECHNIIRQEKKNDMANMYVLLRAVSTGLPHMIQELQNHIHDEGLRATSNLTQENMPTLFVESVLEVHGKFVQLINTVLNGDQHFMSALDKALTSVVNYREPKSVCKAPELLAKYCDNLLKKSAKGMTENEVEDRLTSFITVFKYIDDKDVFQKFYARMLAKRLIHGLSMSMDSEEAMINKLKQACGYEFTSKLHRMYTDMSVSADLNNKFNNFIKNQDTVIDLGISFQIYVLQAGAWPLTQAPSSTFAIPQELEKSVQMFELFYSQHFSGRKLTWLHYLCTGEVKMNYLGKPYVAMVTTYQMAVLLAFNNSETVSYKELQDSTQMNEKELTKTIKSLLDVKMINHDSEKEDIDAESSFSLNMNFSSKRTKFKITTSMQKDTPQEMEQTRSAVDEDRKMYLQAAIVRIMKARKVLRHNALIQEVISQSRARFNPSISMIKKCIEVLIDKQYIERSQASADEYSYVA
T4 sequence (Q15843 1-76, chain 2 of 2): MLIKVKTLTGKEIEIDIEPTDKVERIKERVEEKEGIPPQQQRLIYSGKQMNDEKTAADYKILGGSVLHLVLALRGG

T3 sequence (Q13618 whole entry, chain 1 of 2): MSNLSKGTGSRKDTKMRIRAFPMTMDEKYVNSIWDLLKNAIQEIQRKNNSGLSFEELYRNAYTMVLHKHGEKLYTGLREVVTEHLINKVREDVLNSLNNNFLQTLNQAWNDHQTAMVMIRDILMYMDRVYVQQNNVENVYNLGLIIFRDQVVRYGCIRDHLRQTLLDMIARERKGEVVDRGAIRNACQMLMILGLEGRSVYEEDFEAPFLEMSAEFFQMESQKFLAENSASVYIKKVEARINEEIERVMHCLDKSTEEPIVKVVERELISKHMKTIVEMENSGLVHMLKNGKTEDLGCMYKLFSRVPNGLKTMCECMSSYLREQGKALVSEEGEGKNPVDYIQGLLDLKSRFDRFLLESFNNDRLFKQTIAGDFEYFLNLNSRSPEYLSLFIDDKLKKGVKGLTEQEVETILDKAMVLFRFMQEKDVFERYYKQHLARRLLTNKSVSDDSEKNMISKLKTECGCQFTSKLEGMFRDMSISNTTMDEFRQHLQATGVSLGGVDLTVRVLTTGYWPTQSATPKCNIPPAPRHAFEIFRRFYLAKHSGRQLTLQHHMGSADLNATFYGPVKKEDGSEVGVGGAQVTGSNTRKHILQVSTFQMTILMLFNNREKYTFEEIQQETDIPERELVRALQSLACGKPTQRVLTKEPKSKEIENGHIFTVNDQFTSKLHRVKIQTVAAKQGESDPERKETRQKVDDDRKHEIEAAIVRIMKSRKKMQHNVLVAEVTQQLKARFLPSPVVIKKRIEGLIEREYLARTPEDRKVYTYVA
T3 sequence (Q15843 1-76, chain 2 of 2): as the sequence (Q15843 1-76, chain 2 of 2) above
T2 sequence (Q13618 whole entry, chain 1 of 2): as the sequence (Q13618 whole entry, chain 1 of 2) above
T2 sequence (Q15843 1-76, chain 2 of 2): as the sequence (Q15843 1-76, chain 2 of 2) above
T1 sequence (Q13616 411-776 L421E/V451E/V452K/Y455K, chain 1 of 3): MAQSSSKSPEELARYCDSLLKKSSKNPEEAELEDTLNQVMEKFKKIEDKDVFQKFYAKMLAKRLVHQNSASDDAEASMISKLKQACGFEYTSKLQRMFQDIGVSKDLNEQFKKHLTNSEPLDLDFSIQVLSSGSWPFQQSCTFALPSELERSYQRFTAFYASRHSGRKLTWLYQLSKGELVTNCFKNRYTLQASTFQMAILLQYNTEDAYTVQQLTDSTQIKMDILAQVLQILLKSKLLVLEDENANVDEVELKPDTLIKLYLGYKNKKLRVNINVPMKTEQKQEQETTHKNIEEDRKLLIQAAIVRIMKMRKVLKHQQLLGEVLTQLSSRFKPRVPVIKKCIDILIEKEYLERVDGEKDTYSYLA
T1 sequence (P62877 whole entry, chain 2 of 3, the tested form may be a part): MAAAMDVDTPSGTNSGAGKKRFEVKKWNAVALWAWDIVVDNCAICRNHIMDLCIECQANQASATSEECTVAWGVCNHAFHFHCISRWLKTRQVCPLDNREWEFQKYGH
T1 sequence (Q15843 1-76, chain 3 of 3): as the sequence (Q15843 1-76, chain 2 of 2) above

fold higher EC50 than N8C_Fab1b [1] [fold] | binding result [2] | binding result [3] | binding result [4] | Binder
~3 |  |  |  | N8C_Fab4a (Fab, V domains shown) VH: EVQLVESGGGLVQPGGSLRLSCAASGFNLSYYSMHWVRQAPGKGLEWVASISPYYSYTYYADSVKGRFTISADTSKNTAYLQMNSLRAEDTAVYYCARSHWASYYAGAFDYWGQGTLVTVSS VL: DIQMTQSPSSLSASVGDRVTITCRASQSVSSAVAWYQQKPGKAPKLLIYSASSLYSGVPSRFSGSRSGTDFTLTISSLQPEDFATYYCQQGYAFWHPITFGQGTKVEIK
 | binds | binds |  | N8C_Fab4a, biotinylated (Fab, V domains shown, as the heavy chain of m6; as the light chain of m6; GS linker between the heavy chain and the AviTag-His6 tag; source: E. coli Rosetta (DE3), purified, biotinylated in vitro with BirA; not shown: AviTag, C-terminal, kept) VH: EVQLVESGGGLVQPGGSLRLSCAASGFNLSYYSMHWVRQAPGKGLEWVASISPYYSYTYYADSVKGRFTISADTSKNTAYLQMNSLRAEDTAVYYCARSHWASYYAGAFDYWGQGTLVTVSS VL: DIQMTQSPSSLSASVGDRVTITCRASQSVSSAVAWYQQKPGKAPKLLIYSASSLYSGVPSRFSGSRSGTDFTLTISSLQPEDFATYYCQQGYAFWHPITFGQGTKVEIK
 |  | binds | binds | N8C_Fab3b, biotinylated (Fab, V domains shown, as the heavy chain of m5; as the light chain of m5; GS linker between the heavy chain and the AviTag-His6 tag; Held on streptavidin beads in the IPs; source: E. coli Rosetta (DE3), purified, biotinylated in vitro with BirA; not shown: AviTag, C-terminal, kept) VH: EVQLVESGGGLVQPGGSLRLSCAASGFNFSSSSIHWVRQAPGKGLEWVASISSSYGYTYYADSVKGRFTISADTSKNTAYLQMNSLRAEDTAVYYCARDPFGWAAHGVGLDYWGQGTLVTVSS VL: DIQMTQSPSSLSASVGDRVTITCRASQSVSSAVAWYQQKPGKAPKLLIYSASSLYSGVPSRFSGSRSGTDFTLTISSLQPEDFATYYCQQSSYSLITFGQGTKVEIK

— PMC10667097, “Activity-based profiling of cullin–RING E3 networks by conformation-specific probes” (Nature Chemical Biology, 2023)
